Values quoted from earlier work as cited in PMC4632993.

Target: ubiquitin (Homo sapiens) (UniProt P0CG47)

Sequence of MDA-9/Syntenin (O00560 2-298): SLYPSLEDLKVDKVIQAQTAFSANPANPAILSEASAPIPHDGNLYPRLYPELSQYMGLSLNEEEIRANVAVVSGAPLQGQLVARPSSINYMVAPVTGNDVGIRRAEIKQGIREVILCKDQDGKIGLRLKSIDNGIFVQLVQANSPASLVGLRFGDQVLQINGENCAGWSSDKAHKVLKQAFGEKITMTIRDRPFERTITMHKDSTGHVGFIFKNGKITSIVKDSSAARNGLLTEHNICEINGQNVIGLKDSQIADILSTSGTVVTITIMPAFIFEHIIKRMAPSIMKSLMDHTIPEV

## MDA-9/Syntenin (from UniProt O00560)
  Kd: 27.3 µM
